Patent publication EP4059949A1 (AFFILOGIC, dated 2022)

Tests used:
[1] = target: complement component C3b (obtained after hydrolysis of C3) (UniProt P01024); assay: biolayer interferometry
[2] = target: T1, complement component C3b (obtained after hydrolysis of C3) (UniProt P01024 23-667; P01024 749-1663); assay: biolayer interferometry (Octet RED96), GFP tagged Nanofitin captured by anti-GFP Nanofitin, C3b in solution, 1:1 fit
[3] = target: T1, complement component C3b (obtained …); assay: biolayer interferometry; B10 made recombinantly in E. coli
[4] = target: T1, complement component C3b (obtained …); assay: biolayer interferometry; B10 made by full chemical synthesis

T1 sequence (P01024 23-667 limits assumed, chain 1 of 2): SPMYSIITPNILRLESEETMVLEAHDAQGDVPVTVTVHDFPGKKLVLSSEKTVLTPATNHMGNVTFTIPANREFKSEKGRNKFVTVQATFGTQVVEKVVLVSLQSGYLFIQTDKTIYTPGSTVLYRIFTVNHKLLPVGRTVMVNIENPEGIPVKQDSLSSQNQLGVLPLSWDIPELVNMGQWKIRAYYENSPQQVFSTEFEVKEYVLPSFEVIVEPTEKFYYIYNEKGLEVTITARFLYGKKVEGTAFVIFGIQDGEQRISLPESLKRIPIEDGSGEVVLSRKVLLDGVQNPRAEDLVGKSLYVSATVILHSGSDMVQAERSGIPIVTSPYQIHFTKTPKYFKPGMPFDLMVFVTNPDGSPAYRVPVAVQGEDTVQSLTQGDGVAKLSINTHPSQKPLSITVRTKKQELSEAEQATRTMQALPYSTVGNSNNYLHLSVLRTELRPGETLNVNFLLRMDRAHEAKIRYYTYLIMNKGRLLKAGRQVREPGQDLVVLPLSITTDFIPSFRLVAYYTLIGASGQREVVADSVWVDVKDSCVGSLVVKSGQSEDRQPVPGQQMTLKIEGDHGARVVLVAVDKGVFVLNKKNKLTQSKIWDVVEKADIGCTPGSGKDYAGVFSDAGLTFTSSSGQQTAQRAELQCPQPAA
T1 sequence (P01024 749-1663 limits assumed, chain 2 of 2): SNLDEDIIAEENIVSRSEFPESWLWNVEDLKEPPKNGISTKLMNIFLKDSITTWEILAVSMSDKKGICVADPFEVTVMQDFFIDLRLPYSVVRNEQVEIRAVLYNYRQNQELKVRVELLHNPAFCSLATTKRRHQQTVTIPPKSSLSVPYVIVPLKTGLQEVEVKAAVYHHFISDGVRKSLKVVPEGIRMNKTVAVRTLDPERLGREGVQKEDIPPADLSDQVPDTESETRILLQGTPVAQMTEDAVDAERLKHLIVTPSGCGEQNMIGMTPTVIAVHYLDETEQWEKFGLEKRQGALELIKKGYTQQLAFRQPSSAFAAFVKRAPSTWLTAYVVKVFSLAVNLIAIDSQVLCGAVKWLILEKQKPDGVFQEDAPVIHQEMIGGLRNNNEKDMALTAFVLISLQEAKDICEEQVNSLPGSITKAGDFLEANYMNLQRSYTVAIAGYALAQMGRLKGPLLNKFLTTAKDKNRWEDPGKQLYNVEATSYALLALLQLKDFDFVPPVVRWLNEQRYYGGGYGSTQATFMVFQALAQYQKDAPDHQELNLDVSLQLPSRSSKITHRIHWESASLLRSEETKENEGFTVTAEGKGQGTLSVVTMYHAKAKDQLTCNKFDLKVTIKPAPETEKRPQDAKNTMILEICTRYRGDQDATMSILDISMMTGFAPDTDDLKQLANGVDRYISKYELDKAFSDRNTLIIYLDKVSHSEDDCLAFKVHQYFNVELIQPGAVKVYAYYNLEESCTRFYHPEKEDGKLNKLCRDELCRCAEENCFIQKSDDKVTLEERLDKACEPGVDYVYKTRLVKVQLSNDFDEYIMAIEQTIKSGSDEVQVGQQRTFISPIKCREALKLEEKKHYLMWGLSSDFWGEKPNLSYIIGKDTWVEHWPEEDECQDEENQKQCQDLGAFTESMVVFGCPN
Sequence of complement component C3b (obtained after hydrolysis of C3) (UniProt P01024) (P01024 23-667 limits assumed, chain 1 of 2): as the sequence (P01024 23-667 limits assumed, chain 1 of 2) above
Sequence of complement component C3b (obtained after hydrolysis of C3) (UniProt P01024) (P01024 749-1663 limits assumed, chain 2 of 2): as the sequence (P01024 749-1663 limits assumed, chain 2 of 2) above

B1: anti-C3 Nanofitin B10 with N-terminal peptide (10-mers) and C-terminal 30 kDa protein (designed binder, part only; not given: peptide tag and 30 kDa protein, not shown: small tags and cut ends)
chain, part: MVKVKFDATGEEKEVDTSKISAVYRTGKDVLFSYDDNGKIGWGYVSEKDAPKELLDLLARAERE
Kd [1]: 7.3 nM

B2: B10 (SEQ ID NO: 25), GFP tagged Nanofitin (designed binder)
chain: MVKVKFDATGEEKEVDTSKISAVYRTGKDVLFSYDDNGKIGWGYVSEKDAPKELLDLLARAERE
notes: Variant of Nf1 from off-rate selection; not shown: GFP tag
Kd [2]: 7.31 nM | koff [2]: 0.000433 s⁻¹ | kon [2]: 59200 M⁻¹ s⁻¹

B3: anti-C3 Nanofitin B10 without N- or C-terminal tag (designed binder)
chain: MVKVKFDATGEEKEVDTSKISAVYRTGKDVLFSYDDNGKIGWGYVSEKDAPKELLDLLARAERE
notes: also called Nter tag none, Cter tag none
Kd [3]: 18.5 nM | Kd [4]: 18 nM

B4: anti-C3 Nanofitin B10 with N-terminal 48 kDa protein (designed binder, part only; not given: 48 kDa fusion protein, part only)
chain, part: MVKVKFDATGEEKEVDTSKISAVYRTGKDVLFSYDDNGKIGWGYVSEKDAPKELLDLLARAERE
Kd [1]: 6.7 nM

B5: H03 (SEQ ID NO: 26), GFP tagged Nanofitin (designed binder)
chain: MVKVKFAATGEEKEVDTSKIANVYRVGKDVLFSYDDNGKIGWGYVSEKDAPKELLDLLARAERE
notes: as for B2
Kd [2]: 2.89 nM | koff [2]: 0.000188 s⁻¹ | kon [2]: 65200 M⁻¹ s⁻¹
